Consider four molecules from US20110177998A1 (COMPUGEN, published 2011).

Positions of bridges follow the written chain, without caps; N, C: chain ends. Chains are numbered I, II in the order given. No end group written: not given here.

In assay [1] the target is T1, LGR8 (RXFP2) (human, UniProt Q8WXD0 1-754).
T1 construct: whole, on cells; also called RXFP2_HUMAN
In words: Competition binding against Europium-INSL3 on HEK-293T cells expressing LGR8.

Assay [2] has as its target T1, LGR8 (RXFP2). In words: cell-based or functional assay.
Assay [3] addresses T2, LGR7 (RXFP1) (human, UniProt Q9HBX9 1-757).
T2 sequence (looked up): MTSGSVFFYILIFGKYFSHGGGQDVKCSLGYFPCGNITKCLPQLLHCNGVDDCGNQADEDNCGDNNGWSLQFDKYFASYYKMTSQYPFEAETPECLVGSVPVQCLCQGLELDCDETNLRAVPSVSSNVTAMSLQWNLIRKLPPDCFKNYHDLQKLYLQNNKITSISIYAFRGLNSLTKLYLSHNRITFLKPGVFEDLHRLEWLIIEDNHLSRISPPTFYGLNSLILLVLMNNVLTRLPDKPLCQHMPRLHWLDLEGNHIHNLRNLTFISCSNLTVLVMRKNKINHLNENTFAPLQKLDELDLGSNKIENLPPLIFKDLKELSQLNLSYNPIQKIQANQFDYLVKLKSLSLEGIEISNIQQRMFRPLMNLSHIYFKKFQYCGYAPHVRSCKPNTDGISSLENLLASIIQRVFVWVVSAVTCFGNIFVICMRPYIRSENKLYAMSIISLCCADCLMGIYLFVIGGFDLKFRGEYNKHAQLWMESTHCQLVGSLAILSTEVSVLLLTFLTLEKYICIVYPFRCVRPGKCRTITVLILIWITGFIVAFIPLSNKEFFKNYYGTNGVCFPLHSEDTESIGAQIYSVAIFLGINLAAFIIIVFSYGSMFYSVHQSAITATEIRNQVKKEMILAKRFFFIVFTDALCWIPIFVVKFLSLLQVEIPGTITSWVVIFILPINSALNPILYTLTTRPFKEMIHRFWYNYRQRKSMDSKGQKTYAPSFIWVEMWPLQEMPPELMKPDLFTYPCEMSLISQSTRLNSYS
Put plainly: cell-based or functional assay.

T1 sequence (Q8WXD0 whole entry): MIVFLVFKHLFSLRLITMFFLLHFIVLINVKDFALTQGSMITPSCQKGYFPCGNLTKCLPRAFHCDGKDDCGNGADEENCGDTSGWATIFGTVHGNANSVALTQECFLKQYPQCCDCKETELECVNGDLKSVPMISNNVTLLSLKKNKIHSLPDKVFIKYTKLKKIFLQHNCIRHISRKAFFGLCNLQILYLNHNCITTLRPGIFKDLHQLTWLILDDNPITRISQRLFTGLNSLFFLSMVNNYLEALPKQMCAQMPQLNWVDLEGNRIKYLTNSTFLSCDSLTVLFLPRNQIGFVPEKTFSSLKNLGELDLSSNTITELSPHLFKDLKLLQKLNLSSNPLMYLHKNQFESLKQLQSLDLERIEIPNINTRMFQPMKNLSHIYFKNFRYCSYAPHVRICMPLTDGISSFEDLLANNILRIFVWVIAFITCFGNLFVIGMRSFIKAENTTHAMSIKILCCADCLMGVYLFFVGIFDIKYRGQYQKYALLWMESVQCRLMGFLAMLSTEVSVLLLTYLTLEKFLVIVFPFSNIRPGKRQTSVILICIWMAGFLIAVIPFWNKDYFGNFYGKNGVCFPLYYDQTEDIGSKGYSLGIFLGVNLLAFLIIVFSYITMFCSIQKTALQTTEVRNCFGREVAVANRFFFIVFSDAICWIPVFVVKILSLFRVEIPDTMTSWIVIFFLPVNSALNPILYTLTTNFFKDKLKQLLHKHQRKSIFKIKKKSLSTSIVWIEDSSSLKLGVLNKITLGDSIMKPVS

B1: Peptide P59C13V-Amide (amide) (peptide)
peptide: GQKGQVGPPGAAVRRAYAAFSV-NH2
notes: Synthetic peptide, the C-terminally amidated form of P59C13V; also called P59-Amide; P59 Amide
Regarding B1, the binding result in assay [1] is listed as “binds”.

B2: Peptide P59-S-Amide (Amide) (peptide)
peptide: AYAAFSV-NH2
In the case of B2, the “pCRE-beta-gal reporter after 5 uM forskolin, CHO-K1 cells, % of Forskolin activity” value in assay [2] and in assay [3] was ~2 fold of Forskolin in each case.

B3: Peptide P74C13V (free acid) (peptide)
peptide: GQKGQVGPPGAAVRRAYAAFSVGRRAYAAFSV
notes: Free acid C-terminus
In the case of B3, the binding result in assay [1] is given as “binds”. The “EC50, cell impedance dose response (ACEA RT-CES), transfected CHO-K1 cells” value in assay [3] is roughly 300 nM.

B4: H2 Relaxin (ligand)
chain 1: QLYSALANKCCHVGCTKRSLARFC
chain 2: DSWMEEVIKLCGRELVRAQIAICGMSTWS
modifications: disulfide I:10-I:15, I:11-II:11, I:24-II:23; not fully specified (some residues); ends not checked
In the case of B4, in assay [3], the “EC50, cell impedance dose response (ACEA RT-CES), transfected CHO-K1 cells” value was roughly 100 nM.
